The chains are these.
B1: MLH1 (parent)
chain: YNIATRRKALKNPSEEYGKILEVV
B2: PBXIP1 (parent)
chain: EKQKQPRWREGTKDSHDPLPSWAE
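Note: lentivirally expressed fusions sorted by FACS into six bins by GFP to DsRed ratio, PSI derived from sequencing read proportions per bin multiplied by bin number.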

In the first series the parent is B1. Put plainly: protein stability index of a GFP-peptide fusion (GPS, HEK-293T) (PSI 1-6); higher = more stable. Particulars: c terminus: a fixed tail appended.
In the case of YNIATRRKKLKNPSEEYGKILEVV, the protein stability index amounted to 2.71.

With YNIWTRRKALKNPSEEYGKILEVV, the protein stability index is 1.83.

Turning to YNIYTRRKALKNPSEEYGKILEVV, the protein stability index is 2.12. For YNIVTRRKALKNPSEEYGKILEVV, the protein stability index was determined as 2.49. Still for that read-out and setting: the result for YNIITRRKALKNPSEEYGKILEVV reads 2.54; that for YNIRTRRKALKNPSEEYGKILEVV, 2.97.

On to YNIETRRKALKNPSEEYGKILEVV, for which the protein stability index came out at 3. The same measure, in the same setting: as for YNIHTRRKALKNPSEEYGKILEVV, the figure is 2.89; as for YNIQTRRKALKNPSEEYGKILEVV, 2.57; as for YNINTRRKALKNPSEEYGKILEVV, 3.27. Same read-out and setting: the result for YNIDTRRKALKNPSEEYGKILEVV reads 3.15. For YNICTRRKALKNPSEEYGKILEVV, the protein stability index was found to be 3.31.

With YNIATRGKALKNPSEEYGKILEVV, the protein stability index turned out to be 2.78. Still for that read-out and setting: as for YNIATRAKALKNPSEEYGKILEVV, the figure is 2.5.

With YNIATRKKALKNPSEEYGKILEVV, the protein stability index turned out to be 2.48. Consider YNIATRDKALKNPSEEYGKILEVV, for which the protein stability index was 2.84. Take YNIATRWKALKNPSEEYGKILEVV: the protein stability index stood at 1.78. Same read-out and setting: as for YNIATRCKALKNPSEEYGKILEVV, the figure is 2.37; as for YNIATRHKALKNPSEEYGKILEVV, 2.69. Regarding YNIATRVKALKNPSEEYGKILEVV, the protein stability index is 2.39. Same read-out and setting: the result for YNIATRPKALKNPSEEYGKILEVV reads 3.14; that for YNIATREKALKNPSEEYGKILEVV, 3.66; that for YNIATRTKALKNPSEEYGKILEVV, 2.95. Consider YNIATRRKALKNPAEEYGKILEVV, for which the protein stability index amounted to 2.98. Same read-out and setting: the result for YNIATRRKALKNPLEEYGKILEVV reads 1.78; that for YNIATRRKALKNPEEEYGKILEVV, 3.56; that for YNIATRRKALKNPNEEYGKILEVV, 2.71. As for YNIATRRKALKNPFEEYGKILEVV, the protein stability index is 2.01. Same read-out and setting: as for YNIATRRKALKNPDEEYGKILEVV, the figure is 2.98; as for VNIATRRKALKNPSEEYGKILEVV, 2.76; as for NNIATRRKALKNPSEEYGKILEVV, 3.35. The same measure, in the same setting: the result for MNIATRRKALKNPSEEYGKILEVV reads 2.76; that for SNIATRRKALKNPSEEYGKILEVV, 3.29.

In the case of INIATRRKALKNPSEEYGKILEVV, the protein stability index turned out to be 2.48. Take QNIATRRKALKNPSEEYGKILEVV: the protein stability index is 3.6. On the same count and under the same terms, as for ENIATRRKALKNPSEEYGKILEVV, the figure is 3.55.

In the case of DNIATRRKALKNPSEEYGKILEVV, the protein stability index amounted to 3.69. Still for that read-out and setting: as for FNIATRRKALKNPSEEYGKILEVV, the figure is 2.43; as for WNIATRRKALKNPSEEYGKILEVV, 2.86. Regarding KNIATRRKALKNPSEEYGKILEVV, the protein stability index is 3.52. Still for that read-out and setting: the result for ANIATRRKALKNPSEEYGKILEVV reads 3.18; that for YNIAIRRKALKNPSEEYGKILEVV, 2.17; that for YNIALRRKALKNPSEEYGKILEVV, 2.85.

Consider YNIAGRRKALKNPSEEYGKILEVV, for which the protein stability index stood at 2.82. As for YNIADRRKALKNPSEEYGKILEVV, the protein stability index came out at 3.06. In the case of YNIAFRRKALKNPSEEYGKILEVV, the protein stability index is 2.27. The same measure, in the same setting: as for YNIAVRRKALKNPSEEYGKILEVV, the figure is 3.09; as for YNIACRRKALKNPSEEYGKILEVV, 2.17; as for YNIANRRKALKNPSEEYGKILEVV, 2.57.

With YNIASRRKALKNPSEEYGKILEVV, the protein stability index was determined as 3.03. Still for that read-out and setting: the result for YNIAWRRKALKNPSEEYGKILEVV reads 1.83.

As to YNIAYRRKALKNPSEEYGKILEVV, the protein stability index turned out to be 2. Same read-out and setting: as for YNIAPRRKALKNPSEEYGKILEVV, the figure is 2.82. Still for that read-out and setting: the result for YNIAARRKALKNPSEEYGKILEVV reads 2.54.

As for YNIAERRKALKNPSEEYGKILEVV, the protein stability index came out at 3.54. Same read-out and setting: as for YNIATRRHALKNPSEEYGKILEVV, the figure is 2.48; as for YNIATRRFALKNPSEEYGKILEVV, 2.27.

Take YNIATRRDALKNPSEEYGKILEVV: the protein stability index turned out to be 3.09. As for YNIATRRCALKNPSEEYGKILEVV, the protein stability index stood at 1.87. For the variant YNIATRRLALKNPSEEYGKILEVV, the protein stability index was 1.99. Still for that read-out and setting: the result for YNIATRREALKNPSEEYGKILEVV reads 3.25. YNIATRRRALKNPSEEYGKILEVV: the protein stability index stood at 2.85. Still for that read-out and setting: as for YNIATRRVALKNPSEEYGKILEVV, the figure is 2.2; as for YNIATRRGALKNPSEEYGKILEVV, 3.37; as for YNIATRRIALKNPSEEYGKILEVV, 2. Take YNIATRRWALKNPSEEYGKILEVV: the protein stability index worked out at 1.94.

The variants in another series derive from B2. Described as above. As to conditions: c terminus: a fixed tail appended.
For the variant GKQKQPRWREGTKDSHDPLPSWAE, the protein stability index came to 1.66. On the same count and under the same terms, the result for EKQKQPRWREGTKDSHNPLPSWAE reads 1.97. On the same count and under the same terms, the result for EKQKQPRWDEGTKDSHDPLPSWAE reads 1.76; that for EKQKQPRWREQTKDSHDPLPSWAE, 1.68.

Turning to EKQKQPRWREPTKDSHDPLPSWAE, the protein stability index amounted to 1.77.

For the variant EKQKQPRWREGTNDSHDPLPSWAE, the protein stability index stood at 2.35.

In the case of EKGKQPRWREGTKDSHDPLPSWAE, the protein stability index is 2.03. As for EKQKQPRWREGTKDSHDPLPSWEE, the protein stability index was 2.39. Consider EKQKFPRWREGTKDSHDPLPSWAE, for which the protein stability index came to 2.09. EKQKQPRWREGTKDSHDPLPSQAE: the protein stability index is 5.57. On the same count and under the same terms, as for EKQKQPRWREGTKDSYDPLPSWAE, the figure is 1.39.

For the variant EEQKQPRWREGTKDSHDPLPSWAE, the protein stability index was 3.03. On the same count and under the same terms, as for ECQKQPRWREGTKDSHDPLPSWAE, the figure is 2.96; as for EKQKQPIWREGTKDSHDPLPSWAE, 1.96. Still for that read-out and setting: the result for EKQKQPDWREGTKDSHDPLPSWAE reads 2.47. As for EKQKQPRWREGTKDSHDHLPSWAE, the protein stability index is 1.75. Take EKQKQPRWRGGTKDSHDPLPSWAE: the protein stability index is 1.05.

Take EKQKQPRWRCGTKDSHDPLPSWAE: the protein stability index was determined as 2.32. Still for that read-out and setting: as for EKQKQTRWREGTKDSHDPLPSWAE, the figure is 3.31. For the variant EKQKQPRWREGTKPSHDPLPSWAE, the protein stability index was found to be 1.83. Still for that read-out and setting: as for EKQIQPRWREGTKDSHDPLPSWAE, the figure is 3.8; as for EKQEQPRWREGTKDSHDPLPSWAE, 1.59; as for EKQSQPRWREGTKDSHDPLPSWAE, 1.85. As for EKQKQPRWREGTKDTHDPLPSWAE, the protein stability index was determined as 1.96.

Turning to EKQKQPRWREGTKDQHDPLPSWAE, the protein stability index is 1.8. Still for that read-out and setting: the result for EKQKQPRWREGTKDMHDPLPSWAE reads 3.08; that for EKQKQPRWREGTKDSHDPLPVWAE, 2.68.

Consider EKQKQPRWREGTKDSHDPLPIWAE, for which the protein stability index is 2.56.

The record behind these values is the supplement of paper PMC10567573.
